Experimental data: patent US11352401

molecular target: T1, HLA-A*24 (human); experiment: UV peptide-exchange ELISA; ++++ = yield >75%
T1 construct: MHC monomer made peptide-receptive by UV cleavage of a UV-sensitive ligand; also called peptide-receptive MHC class I monomer

peptide exchange yield [%]	Binder
> 75	VYDQYFITL [VYDQYFITL (SEQ ID NO: 74)]
> 75	YYSPLRDLL [YYSPLRDLL (SEQ ID NO: 80)]
> 75	TWFPKTPMLF [TWFPKTPMLF (SEQ ID NO: 78)]
> 75	RYPGKFYRV [RYPGKFYRV (SEQ ID NO: 67)]
> 75	TLPNTIYRF [TLPNTIYRF (SEQ ID NO: 42)]
> 75	SYMVLAPVF [SYMVLAPVF (SEQ ID NO: 71)]
> 75	VYSDLHAFYY [VYSDLHAFYY (SEQ ID NO: 375)]
> 75	VYPASKMFPFI [VYPASKMFPFI (SEQ ID NO: 65)]
> 75	QYLPGWTVLF [QYLPGWTVLF (SEQ ID NO: 30)]
> 75	VYVGAVNRI [VYVGAVNRI (SEQ ID NO: 377)]
> 75	SLPDLTPTF [SLPDLTPTF (SEQ ID NO: 32)]
> 75	SYPELVKMVW [SYPELVKMVW (SEQ ID NO: 50)]
> 75	RYEGILYTI [RYEGILYTI (SEQ ID NO: 72)]
> 75	RFLPSPVVI [RFLPSPVVI (SEQ ID NO: 82)]
> 75	TYSKKHFRI [TYSKKHFRI (SEQ ID NO: 381)]
> 75	VYNDHSIYVW [VYNDHSIYVW (SEQ ID NO: 386)]
> 75	YPSIIQEF [YPSIIQEF (SEQ ID NO: 57)]
> 75	VFIDHPVHLKF [VFIDHPVHLKF (SEQ ID NO: 48)]
> 75	RYLADLPTL [RYLADLPTL (SEQ ID NO: 79)]
> 75	VMPSDSFFF [VMPSDSFFF (SEQ ID NO: 63)]
> 75	VYPLLSRLYW [VYPLLSRLYW (SEQ ID NO: 29)]
> 75	RWMDQRLVF [RWMDQRLVF (SEQ ID NO: 55)]
> 75	VYMIEPLEL [VYMIEPLEL (SEQ ID NO: 56)]
> 75	QYQNVLTLW [QYQNVLTLW (SEQ ID NO: 31)]
> 75	TYCQNIKEF [TYCQNIKEF (SEQ ID NO: 83)]

More lines, now with the values behind:

Binder	peptide exchange yield [%]
MYINEVERL [MYINEVERL (SEQ ID NO: 385)]	> 75
KYITNLEDL [KYITNLEDL (SEQ ID NO: 53)]	> 75
MQPRMFFLF [MQPRMFFLF (SEQ ID NO: 34)]	> 75
KYVKVFDKF [KYVKVFDKF (SEQ ID NO: 384)]	> 75
QFAAPLRGIYF [QFAAPLRGIYF (SEQ ID NO: 58)]	> 75
KYADYFLEV [KYADYFLEV (SEQ ID NO: 47)]	> 75
IYFRDSSFL [IYFRDSSFL (SEQ ID NO: 66)]	> 75
IYQQIIQTY [IYQQIIQTY (SEQ ID NO: 68)]	> 75
KYMKIFHKF [KYMKIFHKF (SEQ ID NO: 52)]	> 75
NYAIFDEGHML [NYAIFDEGHML (SEQ ID NO: 64)]	> 75
QWPWQASLQF [QWPWQASLQF (SEQ ID NO: 37)]	> 75
LYPEGLRLL [LYPEGLRLL (SEQ ID NO: 81)]	> 75
KYVKDFHKF [KYVKDFHKF (SEQ ID NO: 376)]	> 75
KYFVPPQLF [KYFVPPQLF (SEQ ID NO: 45)]	> 75
LYISEVRNI [LYISEVRNI (SEQ ID NO: 49)]	> 75
NYIYSISVF [NYIYSISVF (SEQ ID NO: 75)]	> 75
AYLSAVGTF [AYLSAVGTF (SEQ ID NO: 44)]	> 75
IMPEKFEFW [IMPEKFEFW (SEQ ID NO: 69)]	> 75
KFLGPAEHLTF [KFLGPAEHLTF (SEQ ID NO: 378)]	> 75
PYTNYTFDF [PYTNYTFDF (SEQ ID NO: 70)]	> 75
LYQEILAQL [LYQEILAQL (SEQ ID NO: 62)]	> 75
KYLEESVWL [KYLEESVWL (SEQ ID NO: 35)]	> 75
KYTNWKAFL [KYTNWKAFL (SEQ ID NO: 38)]	> 75
AFPVTSIFHTF [AFPVTSIFHTF (SEQ ID NO: 46)]	> 75

molecular target: T2, HLA-B*07 (human); experiment: UV peptide-exchange ELISA; ++++ = yield >75%
T2 construct: MHC monomer made peptide-receptive by UV cleavage of a UV-sensitive ligand; also called peptide-receptive MHC class I monomer

peptide exchange yield [%]	Binder
> 75	YPKDIYSSF [YPKDIYSSF (SEQ ID NO: 223)]
> 75	SPSVSQLSVL [SPSVSQLSVL (SEQ ID NO: 220)]
> 75	VPDVAQFVL [VPDVAQFVL (SEQ ID NO: 221)]

More lines, now with the values behind:

Binder	peptide exchange yield [%]
GPQPWHAAL [GPQPWHAAL (SEQ ID NO: 224)]	> 75
LPFDGPGGIL [LPFDGPGGIL (SEQ ID NO: 225)]	> 75
